One may read the Kd as the equilibrium constant for the complex coming apart.

The values below come from PMC9486808 (ACS Chemical Biology, 2022).

B1: Fluorescein-labeled macrocyclic peptide S3 (peptide)
chain: YLKIYWSKIHGLVSEWC
modifications: thioether (positions not given here); not fully specified (N-terminus, bridges); also: fluorescein (FAM) label, position not given here
B2: Fluorescein-labeled macrocyclic peptide L2 (peptide)
chain: YWHKNKYVLTYSCLFAA
modifications: thioether (positions not given here); not fully specified (N-terminus, bridges); also: fluorescein (FAM) label, position not given here
B3: Fluorescein-labeled macrocyclic peptide S5 (peptide)
chain: YVLFRWDHGTLATHWVC
modifications: thioether (positions not given here); not fully specified (N-terminus, bridges); also: fluorescein (FAM) label, position not given here
B4: Fluorescein-labeled macrocyclic peptide L4 (peptide)
chain: YRWVWTSFFSEPYFVVC
modifications: thioether (positions not given here); not fully specified (N-terminus, bridges); also: fluorescein (FAM) label, position not given here

No end group written: not given here.

The test concerns the target Recombinant soluble trimeric H1 HA ectodomain of A/California/04/2009 (H1N1) (Influenza A virus A/California/04/2009 …). Nature of the test: fluorescence polarisation. The conditions noted are these: both partners purified. In general terms: Polarisation of emitted light reports the rotation of a fluorescent probe.
As for B1, the Kd is ≤ 1 nM.
Regarding B2, the Kd was 2.4 nM.
The result for B3 reads ≤ 1 nM; that for B4, ≤ 1 nM.
